The source of these data is paper PMC5384453, “A multi-functional PEGylated gold(III) compound: potent anti-cancer properties and self-assembly into nanostructures for drug co-delivery” (Chemical Science, 2016).

The conditions of data set [1]: mouse. How it is done: The anti-tumor experiments using mice were approved by the animal ethics committees of Jinan University and The University of Hong Kong. […]
point of tumor growth inhibition study, the mice treated with complex 1, 3 and Au1a, respectively, were sacrificed and tissues including liver, spleen, lung, kidney and heart were harvested. The tissues were digested with 10% HCl in concentrated HNO3 (0.1 g of tissue/1 mL). The solution mixture was heated at 60 °C for 15 h, and then diluted 50 times by ultra-pure water for ICP-MS analysis.
Determination of in vivo biodistribution of complex 1, 3 and Au1a by ICP-MS.
Nude mice bearing HCT116 xenografts were treated with 1 (13 mg/kg), or equal molar amount of Au1a (2 mg/kg) or 3 (2 mg/kg) through intravenous injection. After 24 h of the injection, the mice were sacrificed and tissues from tumor, liver, spleen, lung, kidney and heart were harvested. The tissues were digested with 10% HCl in concentrated HNO3 (0.1 g of tissue/1 mL). The solution mixture was heated at 60 °C for 15 h, and then diluted 50 times by ultra-pure water for ICP-MS analysis.
Analysis of tumor tissue from mice treated with complexes 1 by UPLC-QTOF-MS. At the end point of tumor growth inhibition study, the mice treated with solvent control or complex 1 were sacrificed and the tumor tissues were harvested, followed by homogenization in 50% ice-cold acetonitrile (0.1 g/300 µL). […]

The subject of a further data set is A2780cis xenografts. Nature of the data set: In vivo inhibition of tumor growth in nude mice bearing A2780cis xenograft. How it is done: To further investigate the ability of 1 to treat drug-resistant tumors that should be of great interest in clinical application, in vivo antitumor experiments on nude mice bearing cisplatin-resistant A2780cis xenografts with 1 were conducted. […]
every 2 days for 24 days. The control group received equal volume of PBS only.
During the treatment period, the tumor volume and body weight of the nude mice were measured per two days. The tumor volume was calculated by the equation:
Volume (mm3) = l×w2/2, where l and w were the length and width of the tumor. At the end of the treatment, the nude mice were sacrificed and the tumor weight was […]
H&E staining and immunohistochemical (IHC) analysis of mice tissues. […] The expression of p53, Ki67, VEGFR2 and TUNEL was determined by IHC methods as reported previously. […]
animal study. […] During the treatment period, the tumor volume and body weight of the nude mice were measured […]
once every 2–3 days. The tumor volume was calculated by the equation: Volume (mm3) = l×w2/2, where l and w were the length and width of the tumor. At the end of the treatment, the nude mice were sacrificed and the tumor weight was measured. […]
of apoptosis of HCT116 cells was investigated by CellEvent Caspase-3/7 Green ReadyProbes Reagent (30 µL), similar to the procedure of the experiments on gold(III) […]

As for “[Au(TPP–COO–PEG5000–OCH3)]Cl [Compound 1]”, the “hydrolysis in vivo (species found in tumor tissues)” value in data set [1] is “[Au(TPP–COOH)]^+ was found in the UPLC-QTOF-MS of tumor tissues”. Moreover, the “reduction of tumor volume” value with A2780cis xenografts (4 mg kg^–1, intravenous injections every 2–3 days for 13 days, n = 5) is on record as “Over 52%”. In addition, the “mouse death / body weight” value in the data set on A2780cis xenografts (A2780cis xenograft nude mice, 4 mg kg^–1 i.v., 13 days) is on record as “no mouse death or significant loss in body weight”.
